# Positions count from the first letter of the chain named. In names and notes the source's numbering stands.
# B1: wild-type E. coli tryptophanase, holo form (enzyme)
# chain: not shown
# modifications: pyridoxal 5'-phosphate (PLP) covalently bound to Lys270
# notes: tryptophanase (Trpase, EC 4.1.99.1), E. coli, wild type, ~52 kD per monomer; also called wt holo; wt Trpase; source: E. coli SVS 370 cells containing the tnaA gene on plasmids, purified (DEAE anion exchange, Sephacryl S-300-HR)
# B2: E. coli tryptophanase C298S mutant, holo form (enzyme)
# chain: MENFKHLPEPFRIRVIEPVKRTTRAYREEAIIKSGMNPFLLDSEDVFIDLLTDSGTGAVTQSMQAAMMRGDEAYSGSRSYYALAESVKNIFGYQYTIPTHQGRGAEQIYIPVLIKKREQEKGLDRSKMVAFSNYFFDTTQGHSQINGCTVRNVYIKEAFDTGVRYDFKGNFDLEGLERGIEEVGPNNVPYIVATITSNSAGGQPVSLANLKAMYSIAKKYDIPVVMDSARFAENAYFIKQREAEYKDWTIEQITRETYKYADMLAMSAKKDAMVPMGGLLCMKDDSFFDVYTECRTLSVVQEGFPTYGGLEGGAMERLAVGLYDGMNLDWLAYRIAQVQYLVDGLEEIGVVCQQAGGHAAFVDAGKLLPHIPADQFPAQALACELYKVAGIRAVEIGSFLLGRDPKTGKQLPCPAELLRLTIPRATYTQTHMDFIIEAFKHVKENAANIKGLTFTYEPKVLRHFTAKLKEV
# modifications: pyridoxal 5'-phosphate (PLP) covalently bound to Lys270
# notes: tryptophanase (Trpase), E. coli, C298S mutant; also called C298S holo; source: E. coli SVS 370 cells containing the tnaA gene with the site-directed mutation, purified as the wild type
# B3: E. coli tryptophanase W330F mutant, holo form (enzyme)
# chain: not shown
# modifications: pyridoxal 5'-phosphate (PLP) covalently bound to Lys270
# notes: tryptophanase (Trpase), E. coli, W330F mutant; also called W330F holo; source: E. coli SVS 370 cells containing the tnaA gene with the site-directed mutation, purified as the wild type
# B4: wild-type E. coli tryptophanase, apo form (enzyme)
# chain: not shown
# notes: tryptophanase (Trpase, EC 4.1.99.1), E. coli, wild type, without PLP; also called wt apo; apo wt Trpase; source: E. coli SVS 370 cells containing the tnaA gene on plasmids, purified; apo enzyme by overnight dialysis of the holo enzyme against 0.1 M sodium phosphate-ethylenediamine buffer, pH 8.0, 4°C
# B5: E. coli tryptophanase C298S mutant, apo form (enzyme)
# chain: B2 chain
# notes: tryptophanase (Trpase), E. coli, C298S mutant, without PLP; one monomer in the asymmetric unit of the crystal, the tetramer arises by symmetry; also called C298S apo; apo C298S; source: E. coli SVS 370 cells containing the tnaA gene with the site-directed mutation, purified; apo enzyme by overnight dialysis of the holo enzyme
# B6: E. coli tryptophanase W330F mutant, apo form (enzyme)
# chain: not shown
# notes: tryptophanase (Trpase), E. coli, W330F mutant, without PLP; also called W330F apo; source: E. coli SVS 370 cells containing the tnaA gene with the site-directed mutation, purified; apo enzyme by overnight dialysis of the holo enzyme
# B7: E. coli tryptophanase Y74F mutant, apo form (enzyme)
# chain: B2 chain with Y74F, S298C
# notes: tryptophanase (Trpase), E. coli, Y74F mutant, without PLP; one monomer in the asymmetric unit of the crystal, the tetramer arises by symmetry; also called Y74F apo; apo Y74F; source: E. coli BL21(DE3), pET17b plasmid, purified; apo enzyme by overnight dialysis of the holo enzyme
# B8: E. coli tryptophanase Y74F mutant, holo form (enzyme)
# chain: B2 chain with Y74F, S298C
# modifications: pyridoxal 5'-phosphate (PLP) covalently bound to Lys270
# notes: tryptophanase (Trpase), E. coli, Y74F mutant; the sample called 'Y74F holo' was run with 0.1 mM PLP; also called Y74F holo; source: E. coli BL21(DE3), pET17b plasmid, purified
# Target: the molecule itself
# Test: SEC; time profile of cold dissociation at 2°C followed by HPLC gel filtration; Tricine-KCl buffer pH 7.5, protein 1.0 mg/ml; tetramer to dimers
row,Protein,initial rate constant of cold dissociation (tetramer to dimers) [min⁻¹]
1,B1,0.00042
2,B2,0.0032
3,B3,0.00084

# Target: the molecule itself
# Test: SEC; HPLC gel filtration (BIOSEP-SEC S-3000) at 25°C; apo enzymes, same Tricine-KCl buffer without PLP; tetramer to dimers (P. vulgaris: also to monomers)
row,Protein,degree of dissociation to dimers (%)
1,B4,70
2,B5,> 80
3,B6,69
4,B7,80

# Target: the molecule itself
# Test: SEC; HPLC gel filtration (BIOSEP-SEC S-3000) at 2°C after 20 h at 2°C; holo enzymes, 1 mg/ml, Tricine-KCl buffer pH 7.5 with PLP (0.1 mM by the table's footnote), 2 mM EDTA, 5 mM 2-mercaptoethanol; tetramer to dimers
row,Protein,degree of dissociation to dimers (%)
1,B1,20
2,B8,66
3,B2,64
4,B3,61

# Target: the molecule itself
# Test: SEC; HPLC gel filtration (BIOSEP-SEC S-3000) at 25°C; holo enzymes, 1 mg/ml, Tricine-KCl buffer pH 7.5 with PLP (0.1 mM by the table's footnote), 2 mM EDTA, 5 mM 2-mercaptoethanol; tetramer to dimers
row,Protein,stoichiometry N
1,B1,4
2,B2,4
3,B3,4

# Target: the molecule itself
# Test: SEC; HPLC gel filtration (BIOSEP-SEC S-3000) at 2°C after cooling (20 h; P. vulgaris 24 h); apo enzymes, same Tricine-KCl buffer without PLP; tetramer to dimers (P. vulgaris: also to monomers)
row,Protein,degree of dissociation to dimers (%)
1,B4,87
2,B5,88
3,B6,90
4,B7,83

# Target: the molecule itself
# Test: SEC; HPLC gel filtration (BIOSEP-SEC S-3000) at 25°C; holo enzymes, 1 mg/ml, Tricine-KCl buffer pH 7.5 with PLP (0.1 mM by the table's footnote), 2 mM EDTA, 5 mM 2-mercaptoethanol; tetramer to dimers
# Remark: another data set of the same source
row,Protein,degree of dissociation to dimers (%)
1,B1,< 3
2,B8,17
3,B2,< 5
4,B3,< 5
